Measured values taken from patent publication US20200317776A1 (published 2020).
Where a chain is given by its changes, count along the chain named. Numbers in names are those of the source. Where two headings read alike, the source gives them in different places.

How the values were obtained:
[1] = target: T1, human TREM2 Fc fusion (entire TREM2 ECD; only one Fc arm fused to TREM2) (human, UniProt Q9NZC2 19-174); assay: BLI, IgG, avid
T1 construct: also called huTREM2-Fc; recombinant hTREM2
T1 sequence: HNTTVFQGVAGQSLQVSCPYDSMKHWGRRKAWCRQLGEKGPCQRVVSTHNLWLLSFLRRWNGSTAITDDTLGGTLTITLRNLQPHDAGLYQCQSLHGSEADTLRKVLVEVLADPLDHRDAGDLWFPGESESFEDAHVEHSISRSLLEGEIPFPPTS
How it was run: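 Avid format: AHQ-loaded IgGs exposed to 100 nM human or cyno TREM2-Fc antigen, 3 min association, 3 min dissociation in buffer. Monovalent format: human TREM2-Fc loaded on AHQ sensors, exposed to 100 nM Fab. Kinetics fit to 1:1 model, run at 25° C.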

[2] = target: T2, cynomolgus monkey TREM2 Fc fusion (entire TREM2 ECD; only one Fc arm fused to TREM2) (cynomolgus monkey, UniProt Q9NZC2 19-174 (human entry)); assay: BLI, Fab, monovalent
T2 construct: also called cyno TREM2-Fc
T2 chain: T1 sequence with A10E, W60R, L89F, F125V

[3] = target: T3, human TREM2 expressed on cells (human, UniProt Q9NZC2 19-230); assay: cell-based or functional assay
T3 sequence: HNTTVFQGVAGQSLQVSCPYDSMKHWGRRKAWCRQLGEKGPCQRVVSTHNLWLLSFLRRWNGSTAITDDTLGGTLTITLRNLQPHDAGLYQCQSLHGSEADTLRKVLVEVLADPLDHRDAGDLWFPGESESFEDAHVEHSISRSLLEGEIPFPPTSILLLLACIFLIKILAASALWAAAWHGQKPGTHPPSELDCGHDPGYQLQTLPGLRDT

[4] = target: T4, human TREM2/DAP12 fusion protein (human, UniProt O43914 41-113, limits assumed); assay: cell-based or functional assay
[5] = target: T4, human TREM2/DAP12 fusion protein; assay: cell-based or functional assay; remark: listed apart in the source
[6] = target: T3, human TREM2 expressed on cells; assay: FACS, hTREM2 BW cells
How it was run: (§1)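 Cells were BW5147.G.1.4 stably expressing human TREM2 with Dap12, or human monocyte-derived dendritic cells differentiated 6 days with GM-CSF and IL-4. Antibodies bound 1 h on ice in PBS+2% FBS, then PE anti-human secondary 30 min on ice; flow cytometry read-out as mean fluorescence intensity.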

[7] = target: T3, human TREM2 expressed on cells; assay: FACS, hTREM2 BW cells; remark: listed apart in the source
[8] = target: T1, human TREM2 Fc fusion (entire TREM2 …); assay: BLI, Fab, monovalent
[9] = target: T4, human TREM2/DAP12 fusion protein; assay: cell-based or functional assay; remark: listed apart in the source
[10] = target: T3, human TREM2 expressed on cells; assay: FACS, human DCs
How it was run: as §1

[11] = target: T3, human TREM2 expressed on cells; assay: FACS, hTREM2 expressing cell line
[12] = target: T3, human TREM2 expressed on cells; assay: cell-based or functional assay; remark: listed apart in the source
[13] = target: T4, human TREM2/DAP12 fusion protein; assay: cell-based or functional assay; remark: listed apart in the source
[14] = target: T4, human TREM2/DAP12 fusion protein; assay: cell-based or functional assay; remark: listed apart in the source
[15] = target: T1, human TREM2 Fc fusion (entire TREM2 …); assay: BLI
[16] = target: T3, human TREM2 expressed on cells; assay: FACS, hTREM2 BW cells; remark: listed apart in the source
[17] = target: T5, mouse TREM2 (mouse, UniProt Q99NH8 19-227); assay: no effect on Dap12 phosphorylation in WT mice
T5 construct: Endogenous TREM2 of wild-type mice (peritoneal macrophages); also called murine TREM2
T5 sequence: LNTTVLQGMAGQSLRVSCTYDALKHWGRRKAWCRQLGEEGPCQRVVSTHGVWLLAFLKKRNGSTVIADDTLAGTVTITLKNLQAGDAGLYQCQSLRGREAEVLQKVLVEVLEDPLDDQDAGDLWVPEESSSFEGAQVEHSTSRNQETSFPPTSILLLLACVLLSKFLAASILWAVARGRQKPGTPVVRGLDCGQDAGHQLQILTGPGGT

[18] = target: T4, human TREM2/DAP12 fusion protein; assay: cell-based or functional assay; remark: listed apart in the source
[19] = target: T3, human TREM2 expressed on cells; assay: cell-based or functional assay; remark: listed apart in the source
[20] = target: T4, human TREM2/DAP12 fusion protein; assay: cell-based or functional assay; remark: listed apart in the source

B1: AL2p-3 (antibody, V domains shown)
VH: QVQLVQSGAEVKKPGSSVKVSCKASGYAFSSSWMNWVRQAPGQGLEWMGRIYPGEGDTNYAQKFQGRVTITADESTSTAYMELSSLRSEDTAVYYCARLLRNQPGESYAMDYWGQGTLVTVSS
VL: DVVMTQTPLSLSVTPGQPASISCRSSQSLVHSNGYTYLHWYLQKPGQSPQLLIYKVSNRFSGVPDRFSGSGSGTDFTLKISRVEAEDVGVYYCSQSTRVPYTFGQGTKLEIK
notes: AL2p-h50 variant; Fab and IgG formats under one id
In the case of B1, the Kd [1] is reported as 1.19 nM, the Kd [2] is reported as 4580 nM and the “Survival huDCs plate bound IgG, AUC” value [3] is reported as 363000 AUC. For the same binder, the “Luciferase activation plate bound 33 nM IgG, FOC” value [4] was 6.03 FOC, the “Luciferase activation soluble 10 nM IgG, FOC” value [4] was 1.29 FOC and the “luciferase activation, soluble IgG, EC50” value [5] was 50 nM. It also gave a Kd [6] of 2.3 nM and a Kd [7] of 2.3 nM.

B2: AL2p-6 (antibody, V domains shown)
VH: B1 VH with E55D
VL: B1 VL with G34W
notes: as for B1
Binder B2 has a Kd [1] of 1.06 nM, a Kd [8] of 259 nM and a Kd [2] of 1150 nM. For the same binder, the “Survival huDCs plate bound IgG, AUC” value [3] was 547000 AUC, the “Luciferase activation plate bound 33 nM IgG, FOC” value [4] was 5.39 FOC and the “Luciferase activation soluble 10 nM IgG, FOC” value [4] was 1.2 FOC. The “luciferase activation, soluble IgG, EC50” value [5] was 38.6 nM, the Kd [6] was 4.2 nM and the Kd [7] was 4.2 nM.

B3: AL2p-31 (antibody, V domains shown)
VH: B1 VH with S32Q, E55G, Q62R
VL: B1 VL with D1G, F60R
notes: Fab and IgG formats under one id
With B3 the “luciferase activation, plate bound IgG, EC50” value [9] was 10.1 nM, the “luciferase activation, soluble IgG, EC50” value [9] was 1.14 nM and the MFI [10] was 288 MFI. The Kd [1] was 0.317 nM, the Kd [11] was 0.56 nM and the “DC viability (AUC)” value [12] was 860000 AUC. For the same binder, the “Mac viability (AUC)” value [12] was 83700 AUC, the “BW Luc assay plate bound 7.3 nM IgG, FOC” value [13] was 7.49 FOC and the “BW Luc assay soluble 7.3 nM IgG, FOC” value [13] was 4.48 FOC. The Kd [8] was 4.03 nM, the Kd [2] was 3.44 nM and the “Survival huDCs plate bound IgG, AUC” value [3] was 1.21e+06 AUC. For the same binder, the “Luciferase activation plate bound 33 nM IgG, FOC” value [4] was 28.2 FOC, the “Luciferase activation soluble 10 nM IgG, FOC” value [4] was 2.83 FOC and the “Reporter assay plate bound IgG (EC50, nM)” value [14] was 10.1 nM. The “Reporter assay soluble IgG (EC50, nM)” value [14] was 11.4 nM, the “luciferase activation, soluble IgG, EC50” value [5] was 6.92 nM and the Kd [6] was 1 nM. It also gave a Kd [7] of 1.23 nM.

B4: AL2p-47 (antibody, V domains shown)
VH: B1 VH with S32D, Q62R, Q65H, Q103K
VL: B1 VL with S25T, G34A, F60V
notes: Fab and IgG formats under one id (explicit huIgG1 is m97); also called AL2-47
In the case of B4, the “luciferase activation, plate bound IgG, EC50” value [9] is reported as 206 nM, the “luciferase activation, soluble IgG, EC50” value [9] is reported as 104 nM and the MFI [10] is reported as 372 MFI. For the same binder, the Kd [11] was 1.22 nM, the “DC viability (AUC)” value [12] was 771000 AUC and the “Mac viability (AUC)” value [12] was 22100 AUC. For the same binder, the “BW Luc assay plate bound 7.3 nM IgG, FOC” value [13] was 3.54 FOC, the “BW Luc assay soluble 7.3 nM IgG, FOC” value [13] was 3.48 FOC and the Kd [8] was 14.8 nM. The Kd [2] was 16.3 nM, the “Reporter assay plate bound IgG (EC50, nM)” value [14] was 206 nM and the “Reporter assay soluble IgG (EC50, nM)” value [14] was 105 nM. For the same binder, the “fold improvement in affinity (KD) vs AL2p” value [15] was ~10 fold and the Kd [6] was 1.09 nM.

B5: AL2p-58 (antibody, V domains shown)
VH: B1 VH with S16A, S32Q, G44R, M48I, E55G, Q62G, E74T, T76A
VL: DVVMTQSPDSLAVSLGERATINCRSSQSLVHSNRYTYLHWYQQKPGQSPKLLIYKVSNRFSGVPDRFSGSGSGTDFTLKISRVEAEDVGVYYCSQSTRVPYTFGQGTKLEIK
notes: Fab and IgG formats under one id (explicit huIgG1 is m95, PSEG is m96)
In the case of B5, the “luciferase activation, plate bound IgG, EC50” value [9] is reported as 36 nM, the “luciferase activation, soluble IgG, EC50” value [9] is reported as 14 nM and the Kd [11] is reported as 0.51 nM. For the same binder, the Kd [8] was 13.3 nM, the Kd [2] was 12.4 nM and the “Reporter assay plate bound IgG (EC50, nM)” value [14] was 36.1 nM. The “Reporter assay soluble IgG (EC50, nM)” value [14] was 14 nM, the “fold improvement in affinity (KD) vs AL2p” value [15] was ~10 fold and the Kd [6] was 0.51 nM.

B6: AL2p (parental mouse anti-TREM2 antibody) (antibody, V domains shown)
VH: QVQLQQSGPELVKPGASLKISCKASGYAFSSSWMNWVKQRPGKGLEWIGRIYPGDGDTNYNGEFRVRATLTADTSSTTAYMQLSSLTSEDSAVYFCARLLRNQPGESYAMDYWGQGASVTVSS
VL: B1 VL with S12P, T14S, P15L, Q17D, P18Q, Q50K, E86D, V88L, Y92F, Q105G
notes: Parental mouse antibody; Fab and IgG formats under one id; also called 9F5; 9F5a
With B6 the “luciferase activation, soluble IgG, EC50” value [9] was 19.3 nM, the Kd [11] was 3.04 nM and the “Reporter assay soluble IgG (EC50, nM)” value [14] was 19 nM.

B7: AL2p-58 huIgG1 (antibody)
heavy: not shown
light: DVVMTQSPDSLAVSLGERATINCRSSQSLVHSNRYTYLHWYQQKPGQSPKLLIYKVSNRFSGVPDRFSGSGSGTDFTLKISRVEAEDVGVYYCSQSTRVPYTFGQGTKLEIKRTVAAPSVFIFPPSDEQLKSGTASVVCLLNNFYPREAKVQWKVDNALQSGNSQESVTEQDSKDSTYSLSSTLTLSKADYEKHKVYACEVTHQGLSSPVTKSFNRGEC
notes: also called AL2p-58 huIgG1 WT
B7 was tested, and the “Bmax (MFI)” value [16] was 196000 MFI, the Kd [16] was 0.63 nM and the binding result [17] was “no binding”. For the same binder, the “Plate bound IgG, fold over unstimulated control (25 nM IgG)” value [18] was 9.88 fold, the “Soluble IgG, EC50” value [18] was 4.83 nM and the “Soluble IgG, fold over control IgG (17 nM IgG)” value [18] was 9.97 fold. The “EC50 viability, dendritic cells D558” value [19] was 0.288 nM, the “EC50 viability, dendritic cells D559” value [19] was 0.341 nM and the “EC50 viability, dendritic cells D560” value [19] was 0.271 nM. For the same binder, the “EC50 viability, macrophages D558” value [19] was 0.005 nM, the “EC50 viability, macrophages D559” value [19] was 0.359 nM and the “EC50 viability, macrophages D560” value [19] was 0.469 nM.

B8: AL2p-58 huIgG1 PSEG (antibody)
heavy: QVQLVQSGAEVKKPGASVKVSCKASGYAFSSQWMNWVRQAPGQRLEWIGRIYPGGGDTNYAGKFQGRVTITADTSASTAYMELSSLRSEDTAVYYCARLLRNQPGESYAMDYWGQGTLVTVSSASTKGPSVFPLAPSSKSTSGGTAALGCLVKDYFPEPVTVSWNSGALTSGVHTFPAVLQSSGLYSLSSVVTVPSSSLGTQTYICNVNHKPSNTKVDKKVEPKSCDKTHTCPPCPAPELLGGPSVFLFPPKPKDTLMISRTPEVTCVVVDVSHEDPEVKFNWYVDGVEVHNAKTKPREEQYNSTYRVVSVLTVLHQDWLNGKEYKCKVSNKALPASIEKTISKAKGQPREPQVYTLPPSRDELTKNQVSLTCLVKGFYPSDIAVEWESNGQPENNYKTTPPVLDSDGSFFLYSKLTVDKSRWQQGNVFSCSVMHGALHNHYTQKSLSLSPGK
light: B7 light
notes: IgG1 with P331S and E430G; also called AL2p-58 PSEG
With B8 the “Bmax (MFI)” value [16] was 140000 MFI, the Kd [16] was 0.36 nM and the “Plate bound IgG, fold over unstimulated control (25 nM IgG)” value [18] was 12.9 fold. For the same binder, the “Soluble IgG, EC50” value [18] was 2.99 nM, the “Soluble IgG, fold over control IgG (17 nM IgG)” value [18] was 12.1 fold and the “plate bound signal activation, fold over AL2p” value [20] was ~10 fold over AL2p. The “EC50 viability, dendritic cells D558” value [19] was 0.206 nM, the “EC50 viability, dendritic cells D559” value [19] was 0.276 nM and the “EC50 viability, dendritic cells D560” value [19] was 0.206 nM. The “EC50 viability, macrophages D558” value [19] was 0.001 nM, the “EC50 viability, macrophages D559” value [19] was 0.322 nM and the “EC50 viability, macrophages D560” value [19] was 0.426 nM.
